The text below walks through data of patent publication US20070160576A1, “IL-17A/F heterologous polypeptides and therapeutic uses thereof” (Genentech, Inc., priority 2001, published 2007).

Assay [1] addresses T1, PRO5801 (human IL-17RH1 receptor) (Homo sapiens, UniProt Q9NRM6).
T1 sequence (Q9NRM6 18-502): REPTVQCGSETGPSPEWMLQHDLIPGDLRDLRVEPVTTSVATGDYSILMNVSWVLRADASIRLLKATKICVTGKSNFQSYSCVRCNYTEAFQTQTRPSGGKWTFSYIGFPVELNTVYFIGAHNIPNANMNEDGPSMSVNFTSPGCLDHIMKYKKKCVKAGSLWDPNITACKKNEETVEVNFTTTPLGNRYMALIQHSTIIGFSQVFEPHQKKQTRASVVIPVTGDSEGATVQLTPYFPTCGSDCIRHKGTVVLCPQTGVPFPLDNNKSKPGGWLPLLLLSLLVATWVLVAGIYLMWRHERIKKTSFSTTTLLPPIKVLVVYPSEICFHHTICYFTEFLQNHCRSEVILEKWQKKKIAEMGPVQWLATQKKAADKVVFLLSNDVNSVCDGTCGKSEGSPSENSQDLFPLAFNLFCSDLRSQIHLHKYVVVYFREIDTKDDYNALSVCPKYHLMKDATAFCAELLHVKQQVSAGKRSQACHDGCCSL
The assay can be described thus: Receptor/ligand interaction screening assay (immunoadhesin). The format is binding. As to the method: (§1) In general, the assay is performed as follows. A PRO polypeptide of the present invention suspected of being a ligand for a receptor is expressed as a fusion protein containing the Fc domain of human IgG (an immunoadhesin). Receptor-ligand binding is detected by allowing interaction of the immunoadhesin polypeptide with cells (e.g. Cos cells) expressing candidate PRO polypeptide receptors and visualization of bound immunoadhesin with fluorescent reagents directed toward the Fc fusion domain and examination by microscope. Cells expressing candidate receptors are produced by transient transfection, in parallel, of defined subsets of a library of cDNA expression vectors encoding PRO polypeptides that may function as receptor molecules. Cells are then incubated for 1 hour in the presence of the PRO polypeptide immunoadhesin being tested for possible receptor binding. The cells are then washed and fixed with paraformaldehyde. The cells are then incubated with fluorescent conjugated antibody directed against the Fc portion of the PRO polypeptide immunoadhesin (e.g. FITC conjugated goat anti-human-Fc antibody). The cells are then washed again and examined by microscope. A positive interaction is judged by the presence of fluorescent labeling of cells transfected with cDNA encoding a particular PRO polypeptide receptor or pool of receptors and an absence of similar fluorescent labeling of similarly prepared cells that have been transfected with other cDNA or pools of cDNA. If a defined pool of cDNA expression vectors is judged to be positive for interaction with a PRO polypeptide immunoadhesin, the individual cDNA species that comprise the pool are tested individually (the pool is “broken down”) to determine the specific cDNA that encodes a receptor able to interact with the PRO polypeptide immunoadhesin.
(§2) In another embodiment of this assay, an epitope-tagged potential ligand PRO polypeptide (e.g., 8 histidine “His” tag) is allowed to interact with a panel of potential receptor PRO polypeptide molecules that have been expressed as fusions with the Fc domain of human IgG (immunoadhesins). Following a 1 hour co-incubation with the epitope tagged PRO polypeptide, the candidate receptors are each immunoprecipitated with protein A beads and the beads are washed. Potential ligand interaction is determined by Western blot analysis of the immunoprecipitated complexes with antibody directed towards the epitope tag. An interaction is judged to occur if a band of the anticipated molecular weight of the epitope tagged protein is observed in the Western blot analysis with a candidate receptor, but is not observed to occur with the other members of the panel of potential receptors.

Assay [2] addresses human IL-17 receptor (IL-17R, PRO1) (Homo sapiens, UniProt Q96F46). The assay is described as above. The format is binding. As to the method: as §1, §2
In assay [3] the target is T2, human IL-17 receptor (IL-17R, PRO1) as tested in the receptor/ligand screen (human, UniProt Q96F46 33-320, limits assumed).
T2 construct: also called IL-7R (as misprinted)
Description: receptor/ligand screen (immunoadhesin on transfected cells or co-immunoprecipitation). From the text: (§3) A PRO polypeptide of the present invention suspected of being a ligand for a receptor is expressed as a fusion protein containing the Fc domain of human IgG (an immunoadhesin). Receptor-ligand binding is detected by allowing interaction of the immunoadhesin polypeptide with cells (e.g. Cos cells) expressing candidate PRO polypeptide receptors and visualization of bound immunoadhesin with fluorescent reagents directed toward the Fc fusion domain and examination by microscope. Cells expressing candidate receptors are produced by transient transfection, in parallel, of defined subsets of a library of cDNA expression vectors encoding PRO polypeptides that may function as receptor molecules. Cells are then incubated for 1 hour in the presence of the PRO polypeptide immunoadhesin being tested for possible receptor binding. The cells are then washed and fixed with paraformaldehyde. […]
(§4) In another embodiment of this assay, an epitope-tagged potential ligand PRO polypeptide (e.g., 8 histidine “His” tag) is allowed to interact with a panel of potential receptor PRO polypeptide molecules that have been expressed as fusions with the Fc domain of human IgG (immunoadhesins). […] Potential ligand interaction is determined by Western blot analysis of the immunoprecipitated complexes with antibody directed towards the epitope tag.

Assay [4] addresses T3, PRO5801 (human IL-17RH1 receptor) as tested in the receptor/ligand screen (human, UniProt Q9NRM6 18-292, limits assumed).
T3 sequence (looked up): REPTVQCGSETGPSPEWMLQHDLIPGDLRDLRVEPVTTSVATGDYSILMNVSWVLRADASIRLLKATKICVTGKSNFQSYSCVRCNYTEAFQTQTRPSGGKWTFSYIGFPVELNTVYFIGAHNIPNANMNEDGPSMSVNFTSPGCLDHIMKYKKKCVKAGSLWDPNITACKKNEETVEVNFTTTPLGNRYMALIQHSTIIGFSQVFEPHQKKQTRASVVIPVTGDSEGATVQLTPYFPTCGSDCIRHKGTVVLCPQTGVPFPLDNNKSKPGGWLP
Described as above.
From the text: as §3, §4

B1: PRO1031 (human IL-17B ligand) (ligand, UniProt Q9UHF5 21-180, looked up)
chain: QPRSPKSKRKGQGRPGPLAPGPHQVPLDLVSRMKPYARMEEYERNIEEMVAQLRNSSELAQRKCEVNLQLWMSNKRSLSPWGYSINHDPSRIPVDLPEARCLCLGCVNPFTMQEDRSMVSVPVFSQVPVRRRLCPPPPRTGPCRQRAVMETIAVGCTCIF
With B1, the “binding to IL-17RH1 receptor (PRO5801)” value in assay [1] is given as “binds to”. For the same molecule, the “binding to human IL-17 receptor (IL-17R, PRO1)” value in assay [2] is on record as “do not bind”. Further, the binding result in assay [3] is listed as “no binding”; in assay [4], “binds”.
